Source: patent US20260275317A1, “CHIMERIC ENDOLYSINS WITH ACTIVITY AGAINST STREPTOCOCCI AND STAPHYLOCOCCI” (UNIVERSITEIT GENT, priority 2023, published 2026)

What was measured:
[1] = tested on: S. uberis in mastitic raw cow's milk; assay: Challenge of mastitic raw cow's milk; format: cell-based, Streptococcus uberis; settings: milk of 4 cows, 8 h; 0.5 μM NC5, 50 μg/mL cloxacillin or both
Method: Raw cow's milk from S. uberis infected dairy cows was supplied by the milk control center of Flanders (MCC Vlaanderen). Upon arrival, the milk was serially diluted and plated on BHI agar to determine the bacterial load. Only milk with >10^5 […] CFU/mL S. uberis was included as a selection criterium. If needed, the raw milk was incubated during 8 h at 37° C. to artificially increase the initial bacterial load. […] Upon incubation at 37° C., every 2 h, 20 μL was transferred from each well to 180 μL dPBS, serially diluted and plated on BHI agar. Plates were incubated overnight and CFU/mL were calculated the next day. Undiluted, mastitic milk was always pipetted with ClipTip Pipette Tips (Westburg, The Netherlands) due to high viscosity. Mastitis isolates were confirmed as S. uberis by MALDI-TOF MS biotyping.

[2] = tested on: stationary phase S. uberis; assay: Turbidity reduction assay (TRA), S. uberis; format: cell-based, Streptococcus uberis
Method: (§1) Concerning the time killing assay, an overnight bacterial culture was diluted 1:10 for S. uberis, S. agalactiae-& dysgalactiae or 1:100 for S. aureus in PBS or UHT-pasteurized whole cow's milk. A volume of 10 μL thereof was combined with an equal amount of chimeric endolysin in PBS (or only PBS as negative control) in triplicate and incubated in a covered 96-well microtiter plate at 37° C. for 2 h. The dose was low (i.e. 0.25 μM), but this was chosen to differentiate between less and better performing variants, consequently allowing a ranking. Finally, these fractions were serially diluted 1:10 in PBS. 5 μL of each fraction was spotted on TSA or BHI-agar and incubated overnight at 37° C. The following day, colony forming units (CFU) were counted and converted to CFU/mL to calculate logarithmic reductions in comparison with the negative control. The relative scores were calculated by dividing the observed logarithmic reduction for each endolysin by the maximal reduction observed for that specific condition and strain. Next, this value was divided by the number of conditions and strains tested (i.e., 8=4 bacterial strains×2 conditions (PBS/UHT-milk)). As such, the best performing candidate in each individual assay received a score of 0.125 (=(1/1)/8). […] Turbidity reduction assays were performed by combining 100 μL of overnight grown bacterial cells with an equal volume of purified enzyme at the desired concentration. Bacterial cells were washed with PBS and resuspended in a 1:1 ratio with enzyme to an OD600 of approximately 1.0. Next, the OD600 was measured using a Tecan infinite 200 PRO plate reader (Tecan, Switzerland) every 15 seconds at 37° C., shaking the 96-well plate between each measurement.
(§2) Time killing and turbidity reduction assays were performed as previously described in 1.3.1.

[3] = tested on: S. uberis, S. aureus, S. agalactiae and S. dysgalactiae; assay: 2 h time killing assay in PBS and UHT-milk, relative in vitro scoring; format: cell-based; settings: 0.25 μM
Method: as §1, with “The dose was low (i.e. 0.25 μM), but this was chosen to differentiate between less and better performing variants, consequently allowing a ranking.” left out
Stationary phase S. uberis 0140J or S. aureus N305 and one randomly chosen clinical isolate of S. uberis, S. aureus, S. agalactiae and S. dysgalactiae were challenged with a final concentration of 0.25 μM endolysin in a 2 h time killing assay (TKA) in both phosphate buffered saline (PBS) and ultra-high temperature pasteurized whole cow's milk (UHT-milk).

S. dysgalactiae = assay: Time killing assay (TKA), S. dysgalactiae; format: cell-based, Streptococcus dysgalactiae; settings: 0.3 μM
Method: as §1, with “A volume of 10 μL thereof was combined with an equal amount of chimeric endolysin in PBS (or only PBS as negative control) in triplicate and incubated in a covered 96-well microtiter plate at 37° C. for 2 h. The dose was low (i.e. 0.25 μM), but this was chosen to differentiate between less and better performing variants, consequently allowing a ranking.” left out
as §2
Time killing assays were performed as previously described in 1.3.1.

B1: NC5: chimeric endolysin SEQ ID NO: 17; HIV-1 TAT + PlySs2 CHAP + Ply1081 CW_7 + PlySs9 amidase_3 (protein)
chain: MYGRKKRRQRRRGATTVNEALNNVRAQVGSGVSVGNGECYALASWYERMISPDATVGLGAGVGWVSGAIGDTISAKNIGSSYNWQANGWTVSTSGPFKAGQIVTLGATPGNPYGHVVIVEAVDGDRLTILEQNYGGKRYPVRNYYSAASYRQQVVHYITPPGTVAQSAPNLAGAGIDQLVQETLAGKYGNGEQRKAALGSQYQAVMAVINGKATAPKKTVDQLAQEVIQGKHGNGEDRKKSLGPDYDAVQKRVTEILKGSPSGNIPKTPSDAPKSEVVNSSTEPKTEETGANGKATDTKITKGSGKHLVICGHGQGRTGYDPGAVNAKLGITEAGKVRELSKLMSKYSGQQIDFITEQNVYDYRSITSIGKGYDSITELHFNAFNGSAKGTEVLIQSSLEADKEDMAILSLLSRYFQNRGIKKVDWLYNANQAASRGYTYRLVEIAFIDNEQDMAIFENKKEDIAKGLVSAITGVEVKTIVPSPPSSTVGSSGTPSKSIYLVGDSLRVLPHATHYQTGQKIANWVKGRTYKILQVKNVHQSNSKRAYLLDGIKSWVLEQDVEGTTKGHSKYHHHHHH
With B1 the “log10 reduction of S. uberis versus PBS control” value [1] was “caused a log10 reduction in all mastitic milk samples after 8 h”, the “lysis in comparative TRA versus NC3 and NC8” value ([2]; 0.5 μM, S. uberis 0140J) was “lysed the bacterial cells faster and resulted in a higher reduction of the OD600” and the “lysis speed (ΔOD600/min)/μM” value ([2]; Clinical S. uberis 1 (Unknown ST and GCC), 0.3 μM) was 0.06 (ΔOD600/min)/μM. For the same molecule, the ΔOD600 ([2]; Clinical S. uberis 1 (Unknown ST and GCC), 1 h, 0.3 μM) was 0.42, the “lysis speed (ΔOD600/min)/μM” value ([2]; Clinical S. uberis 2 (Unknown ST, GCC 5), 0.3 μM) was 0.11 (ΔOD600/min)/μM and the ΔOD600 ([2]; Clinical S. uberis 2 (Unknown ST, GCC 5), 1 h, 0.3 μM) was 0.38. The “lysis speed (ΔOD600/min)/μM” value ([2]; Clinical S. uberis 3 (Unknown ST, GCC 5), 0.3 μM) was 0.44 (ΔOD600/min)/μM, the ΔOD600 ([2]; Clinical S. uberis 3 (Unknown ST, GCC 5), 1 h, 0.3 μM) was 0.62 and the “lysis speed (ΔOD600/min)/μM” value ([2]; Clinical S. uberis 4 (ST 815, GCC 143), 0.3 μM) was 0.05 (ΔOD600/min)/μM. For the same molecule, the ΔOD600 ([2]; Clinical S. uberis 4 (ST 815, GCC 143), 1 h, 0.3 μM) was 0.63, the “lysis speed (ΔOD600/min)/μM” value ([2]; Clinical S. uberis 5 (ST 944, GCC 5), 0.3 μM) was 0.21 (ΔOD600/min)/μM and the ΔOD600 ([2]; Clinical S. uberis 5 (ST 944, GCC 5), 1 h, 0.3 μM) was 0.59. For the same molecule, the ΔOD600 ([2]; S. uberis 0140J, 0.3 μM) was 0.57±0.00, the “lysis speed (ΔOD600/min)/μM, NC5 pairwise versus NC2” value ([2]; S. uberis (sub)clinical isolates, 0.3 μM) was “significantly (p <0.01) faster” and the “lysis speed (ΔOD600/min)/μM” value ([2]; Subclinical S. uberis 1 (ST 808, GCC 143), 0.3 μM) was 0.43 (ΔOD600/min)/μM. For the same molecule, the ΔOD600 ([2]; Subclinical S. uberis 1 (ST 808, GCC 143), 1 h, 0.3 μM) was 0.66, the “lysis speed (ΔOD600/min)/μM” value ([2]; Subclinical S. uberis 2 (Unknown ST and GCC), 0.3 μM) was 0.11 (ΔOD600/min)/μM and the ΔOD600 ([2]; Subclinical S. uberis 2 (Unknown ST and GCC), 1 h, 0.3 μM) was 0.65. The “lysis speed (ΔOD600/min)/μM” value ([2]; Subclinical S. uberis 3 (Unknown ST, GCC 5), 0.3 μM) was 0.39 (ΔOD600/min)/μM, the ΔOD600 ([2]; Subclinical S. uberis 3 (Unknown ST, GCC 5), 1 h, 0.3 μM) was 0.53 and the “lysis speed (ΔOD600/min)/μM” value ([2]; Subclinical S. uberis 4 (Unknown ST and GCC), 0.3 μM) was 0.28 (ΔOD600/min)/μM. The ΔOD600 ([2]; Subclinical S. uberis 4 (Unknown ST and GCC), 1 h, 0.3 μM) was 0.42, the “ranking by cumulative relative in vitro score” value [3] was “overall best performing candidates” and the “ΔLog10 (CFU/mL)” value (S. dysgalactiae; S. dysgalactiae 1, 1 h) was 1.77 Log10 (CFU/mL). The “ΔLog10 (CFU/mL)” value (S. dysgalactiae; S. dysgalactiae 2, 1 h) was 0.15 Log10 (CFU/mL), the “ΔLog10 (CFU/mL)” value (S. dysgalactiae; S. dysgalactiae 3, 1 h) was 1.11 Log10 (CFU/mL) and the log10 reduction (S. dysgalactiae; mastitis-derived S. dysgalactiae, versus PBS) was 1.11±0.17 log10. For the same molecule, the “Δ log10, reductions up to” value (S. dysgalactiae; three clinical S. dysgalactiae isolates) was no more than 1.77±0.43 log10.
